Target: Rac1BD (MiniBAR70-208), recombinant (human) (UniProt O15063)
Test: SEC-MALS

stoichiometry N (Rac1 per Rac1BD homodimer): 2
Substance: Rac1Q61L, recombinant (from UniProt P63000 1-192) (natural protein)

From paper doi:10.1101/2023.07.24.550339
